Test results reported in PMC9317633, “Antifungal Effect of Penicillamine Due to the Selective Targeting of L-Homoserine O-Acetyltransferase” (International Journal of Molecular Sciences, 2022).

T1: CaMet2NHp (Candida albicans, UniProt Q5A948)
T1 construct: gene MET2; full length with N-terminal oligo-His tag (kept), ~45 kDa; E. coli Rosetta (DE3) pLysS; dimer only in model
T1 sequence (Q5A948 1-409): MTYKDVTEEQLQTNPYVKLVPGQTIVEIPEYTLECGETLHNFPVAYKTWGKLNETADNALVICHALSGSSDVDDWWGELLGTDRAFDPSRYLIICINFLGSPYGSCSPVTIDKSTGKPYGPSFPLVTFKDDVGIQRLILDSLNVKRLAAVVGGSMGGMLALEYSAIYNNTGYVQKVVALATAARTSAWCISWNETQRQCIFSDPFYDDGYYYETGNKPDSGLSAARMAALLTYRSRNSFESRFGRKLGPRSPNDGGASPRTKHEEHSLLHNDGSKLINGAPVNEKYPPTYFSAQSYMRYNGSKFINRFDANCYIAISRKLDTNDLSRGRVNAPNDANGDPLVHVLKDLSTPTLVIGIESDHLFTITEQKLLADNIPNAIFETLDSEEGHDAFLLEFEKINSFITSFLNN

B1: CaMet2p (Candida albicans SC5314) (protein)
chain: T1 sequence (Q5A948 1-409)
notes: E. coli BL21 Star (DE3); dimer only in model
B2: CaMet2NHp (Candida albicans SC5314) (protein)
chain: T1 sequence (Q5A948 1-409)
notes: full length with N-terminal oligo-His tag (kept), ~45 kDa; E. coli Rosetta (DE3) pLysS; dimer only in model

Legend:
CaMet2NHp [1] = target: T1, CaMet2NHp; test: inhibition, DTNB end-point assay of CoA formed, […] nm; format: biochemical
CaMet2NHp [2] = target: T1, CaMet2NHp; test: as above; format: biochemical; settings: read-out: % inhibition at 25 mM
purified protein [3] = substrate: N[C@@H](CCO)C(=O)O; test: purified protein; format: biochemical, Candida albicans; settings: 3.5 mM AcCoA, pH 8.0 phosphate, 100 mM NaCl, 1 mM EDTA, 37 °C
purified protein [4] = substrate: CC(=O)SCCNC(=O)CCNC(=O)[C@H](O)C(C)(C)COP(=O)(O)OP(=O)(O)OC[C@H]1O[C@@H](n2cnc3c(N)ncnc32)[C@H](O)[C@@H]1OP(=O)(O)O; test: purified protein; format: biochemical, Candida albicans; settings: 10 mM L-Hom, pH 8.0 phosphate, 100 mM NaCl, 1 mM EDTA, 37 °C

Row | Molecule | IC50 (CaMet2NHp [1]) [mM] | inhibition at 25000 µM (CaMet2NHp [2]) [%] | Km (purified protein [3]) [µM] | Vmax (purified protein [3]) [µmol/min/mg] | kcat (purified protein [3]) [s⁻¹] | kcat/Km (purified protein [3]) [M⁻¹ s⁻¹] | Km (purified protein [4]) [µM] | Vmax (purified protein [4]) [µmol/min/mg] | kcat (purified protein [4]) [s⁻¹] | kcat/Km (purified protein [4]) [M⁻¹ s⁻¹]
1 | CC(C)(S)[C@@H](N)C(=O)O [D-Pen] | ~2 | – | – | – | – | – | – | – | – | –
2 | CSCC[C@H](N)C(=O)O [L-Met] | – | 17 | – | – | – | – | – | – | – | –
3 | CC(C)(S)[C@H](N)C(=O)O [L-Pen] | ~2 | – | – | – | – | – | – | – | – | –
4 | B1 | – | – | 405 ± 50 | 17.1 | 13 ± 0.405 | 32100 | 906 ± 119 | 20.1 | 15.2 ± 0.572 | 16800
5 | B2 | – | – | 578 ± 118 | 17.2 | 13.1 ± 0.723 | 22700 | 1130 ± 150 | 19.8 | 15 ± 0.635 | 13300
